For three molecules, EC50 results are on record in patent US20240076386A1 (Pfizer, published 2024).

Assay [1] concerns the target T1, recombinant histidine-tagged cynomolgus monkey E-selectin (Sino Biologicals; 190169-C08H) (cynomolgus monkey, UniProt A0A2K5U7H9 22-554).
T1 construct: also called recombinant cynomolgus monkey E-selectin
T1 sequence: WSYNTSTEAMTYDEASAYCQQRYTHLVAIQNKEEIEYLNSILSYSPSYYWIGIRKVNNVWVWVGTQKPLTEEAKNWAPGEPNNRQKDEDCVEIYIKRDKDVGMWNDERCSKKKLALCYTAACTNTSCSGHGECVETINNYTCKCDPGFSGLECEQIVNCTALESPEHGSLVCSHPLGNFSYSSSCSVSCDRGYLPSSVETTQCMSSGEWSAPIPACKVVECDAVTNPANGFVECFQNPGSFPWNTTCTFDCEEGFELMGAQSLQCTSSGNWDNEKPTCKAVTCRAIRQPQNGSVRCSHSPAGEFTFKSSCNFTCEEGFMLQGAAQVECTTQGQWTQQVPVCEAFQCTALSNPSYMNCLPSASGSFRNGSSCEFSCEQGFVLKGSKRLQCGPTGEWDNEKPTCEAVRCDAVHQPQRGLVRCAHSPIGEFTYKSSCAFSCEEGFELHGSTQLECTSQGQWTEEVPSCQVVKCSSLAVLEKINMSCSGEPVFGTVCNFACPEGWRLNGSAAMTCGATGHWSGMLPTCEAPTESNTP
Description: direct binding ELISA, His-tagged selectin on plate. As for the experimental part:
(§1) Recombinant histidine tagged human P-, E- or L-selectin (Sino Biologicals), mouse E-selectin (Sino Biologicals), rat E-selectin (Sino Biologicals) and Cynomolgus monkey E-selectin (Sino Biologicals) stock solutions were prepared to a final concentration of 1 μg/mL in phosphate buffered saline without calcium and magnesium. Controls included an L-selectin directed antibody (BioLegend; 304811) or P-selectin directed antibody or a negative control IgG. One hundred μL per well of the diluted recombinant selectin proteins were added into a Ni-NTA HisSorb 96 well plate (Qiagen; 35061). Plates were incubated on an orbital shaker at room temperature for 2 hours. Following the incubation, the plates were washed 3 times with 200 μL of wash buffer (50 mM TRIS [trisaminomethane]; 150 mM sodium chloride; 0.05% polysorbate 20, pH 7.4). To decrease nonspecific binding, plates were treated with 200 μL of blocking buffer (BD Opteia buffer; 555213; BD Biosciences), incubated on an orbital shaker for 1 hour at room temperature and washed as described above. […] One hundred μL specific detection antibodies (described below) were added and incubated for 1 hour: [0556] […] Anti L-selectin and anti-rat-E-selectin antibodies were detected using 1 to 25000 dilution of Peroxidase-conjugated AffiniPure Goat Anti-Mouse IgG (H+L); (Jackson ImnnunoResearch Lab).
(§2) Plates were washed and 100 μL per well of 1-Step Ultra TMB substrate (Thermo Scientific) was added and incubated for 5 minutes at room temperature. Reactions were stopped with 100 μL of 2 M sulfuric acid and absorbance read at 450 nm (Spectramax M5e).

The target of assay [2] is T2, recombinant histidine-tagged human E-selectin (Sino Biologicals; 13025-H08H) (human, UniProt P16581 22-556).
T2 construct: also called recombinant human E-selectin; soluble recombinant human E-selectin
T2 sequence (looked up): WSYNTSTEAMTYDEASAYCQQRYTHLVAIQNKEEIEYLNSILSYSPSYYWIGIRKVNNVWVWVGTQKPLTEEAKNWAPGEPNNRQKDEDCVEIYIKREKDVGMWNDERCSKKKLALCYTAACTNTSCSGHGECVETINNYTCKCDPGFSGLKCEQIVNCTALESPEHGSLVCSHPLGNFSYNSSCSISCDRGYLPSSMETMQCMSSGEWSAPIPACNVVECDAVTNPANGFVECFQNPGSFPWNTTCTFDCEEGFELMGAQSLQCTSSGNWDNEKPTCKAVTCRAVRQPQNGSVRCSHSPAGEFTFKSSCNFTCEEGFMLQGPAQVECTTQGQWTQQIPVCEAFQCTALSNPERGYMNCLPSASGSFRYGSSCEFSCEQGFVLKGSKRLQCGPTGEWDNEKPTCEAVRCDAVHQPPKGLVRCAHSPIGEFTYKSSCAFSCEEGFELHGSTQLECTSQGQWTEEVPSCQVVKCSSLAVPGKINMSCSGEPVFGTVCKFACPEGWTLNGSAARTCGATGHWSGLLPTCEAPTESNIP
Briefly: direct binding ELISA, His-tagged selectin on plate. As to the method:
as §1, §2

B1: humanized anti-E-selectin antibody 0841 (antibody, human IgG1, kappa, V domains shown)
VH: EVQLVESGGGLVQPGGSLRLSCAASGYNIRSSYMHWVRQAPGKGLEWVARIDPANGNTIYAEKFKIRFTISADNAKNSAYLQMNSLRAEDTAVYYCAMDLYSTSEYWGQGTLVTVSS
VL: DIQMTQSPSSLSASVGDRVTITCKTSQNINRYLNWYQQKPGKAPKLLIYNANSLQTGVPSRFSGSGSGTDFTLTISSLQPEDFATYFCLQDNSWPLTFGQGTKVEIKR
notes: effector-null human IgG1, kappa
With B1, the figures for the EC50 in assay [1] and in assay [2] were 0.081 nM and 0.17 nM, respectively.

B2: optimized anti-E-selectin antibody 1444 (antibody, human IgG1, kappa, V domains shown)
VH: EVQLVESGGGLVQPGGSLRLSCAASGYAIRSAYMHWVRQAPGKGLEWVARIDPANGNTIYVDSVTGRFTISADNAKNSAYLQMNSLRAEDTAVYYCAMDLYSTSEYWGQGTLVTVSS
VL: DIQMTQSPSSLSASVGDRVTITCKTSQNIERYLNWYQQKPGKAPKLLIYAASSLQSGVPSRFSGSGSGTDFTLTISSLQPEDFATYFCLQDNAWPLTFGQGTKVEIKR
notes: as for B1
On to B2, for which the EC50 in assay [1] was found to be 0.093 nM; in assay [2], 0.12 nM.

B3: optimized anti-E-selectin antibody 1284 (antibody, human IgG1, kappa, V domains shown)
VH: EVQLVESGGGLVQPGGSLRLSCAASGYAIRSAYMHWVRQAPGKGLEWVARIDPANGNTIYVESVEGRFTISADNAKNSAYLQMNSLRAEDTAVYYCAMDLYSTSEYWGQGTLVTVSS
VL: DIQMTQSPSSLSASVGDRVTITCKTSQNIERYLNWYQQKPGKAPKLLIYAASSLQSGVPSRFSGSGSGTDFTLTISSLQPEDFATYFCLQDNAWPLTFGQGTKVEIKR
notes: as for B1
As for B3, the EC50 in assay [1] was determined as 0.082 nM; in assay [2], 0.1 nM.
